Earlier results on one substance are cited in publication PMC6601554.

In this data set the target is Mouse neonatal Fc receptor (FcRn) (UniProt Q61559). Nature of the data set: not stated in this article.
Sequence of UniProt Q61559 (Q61559 whole entry): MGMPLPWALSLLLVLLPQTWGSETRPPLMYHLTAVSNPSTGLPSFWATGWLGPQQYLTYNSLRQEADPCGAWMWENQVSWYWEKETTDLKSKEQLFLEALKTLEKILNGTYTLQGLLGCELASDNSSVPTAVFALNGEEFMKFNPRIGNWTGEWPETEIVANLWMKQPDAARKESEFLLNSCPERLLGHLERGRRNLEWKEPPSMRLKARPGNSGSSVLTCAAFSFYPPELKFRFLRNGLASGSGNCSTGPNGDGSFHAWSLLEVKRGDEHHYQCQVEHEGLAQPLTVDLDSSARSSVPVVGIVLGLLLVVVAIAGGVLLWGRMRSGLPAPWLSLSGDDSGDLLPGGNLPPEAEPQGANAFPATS

In general, Kd refers to a measure of binding affinity in units of concentration. Regarding “MST-HN human IgG1 (Abdeg; mutated humanized anti-hen egg lysozyme HuLys10) M252Y;S254T;T256E;H433K;N434F”, the Kd runs as follows: (pH 6.0) 1.2 nM; (pH 7.2) 7.4 nM.
